From paper PMC5612115

How the values were obtained:
[1] = target: LT5.J4b12C SOSIP.664 trimeric Env (HIV-1 B/C recombinant, soluble gp140) (HIV-1); assay: negative-stain EM
[2] = target: His6-tagged sCD4 (D1-D2); assay: BLI

LT5.J4b12C SOSIP.664 trimeric Env (HIV-1 B/C recombinant, soluble gp140) (complex)
stoichiometry N [1]: 3 | fold lower affinity than BG505 SOSIP.664 [2]: 3 fold
